The record followed here is US6284513.

Test [1] addresses thiopeptolide Ac-Pro-Leu-Gly-thioester-Leu-Leu-Gly-OEt (not provided).

In the case of “human stromelysin catalytic domain protein (enzyme)”, the Proteoglycan Degradation (µg of Chondroitin Sulfate/h) (µg of Chondroitin Sulfate/h) with proteoglycan amounted to 8. In test [1], this substance gave a hydrolysis of the thiopeptolide substrate (Km, kcat) of 270 µM.
